Assay results taken from article PMC9120032, “SARS-CoV-2 ORF6 disrupts nucleocytoplasmic trafficking to advance viral replication” (Communications Biology, 2022).

Key:
[1] = target: T1, Flag-importin α1 recombinant protein (human, UniProt P52292 1-529); assay: pull-down; GST fusion proteins immobilised on glutathione-Sepharose 4B beads; recombinant proteins (100 pmol each) in 200 μL transport buffer (20 mM HEPES pH 7.3, 110 mM potassium acetate, 2 mM magnesium acetate, 1 mM EGTA, 1 mM DTT) with 0.1% Triton X-100, 4 °C, 1 h; five washes; western blot; conditions: both partners purified
T1 construct: human importin α1 (KPNA2); also called Flag-Impα1; FLAG-h-importin α1; source: bacterially expressed recombinant protein, purified; not shown: FLAG, N-terminal, kept

[2] = target: T2, bacterially purified recombinant STAT1 protein (human, UniProt P42224 1-750); assay: as above; conditions: both partners purified
T2 construct: human STAT1, full length, subcloned into pGEX6P2 from the pcDNA5/FRT/3xFLAG expression vector; The methods tell in general that GST tags were cleaved with PreScission or thrombin; also called STAT1 recombinant protein; Flag-h-STAT1; source: bacterially expressed recombinant protein, purified; not shown: Flag, N-terminal, kept
T2 sequence: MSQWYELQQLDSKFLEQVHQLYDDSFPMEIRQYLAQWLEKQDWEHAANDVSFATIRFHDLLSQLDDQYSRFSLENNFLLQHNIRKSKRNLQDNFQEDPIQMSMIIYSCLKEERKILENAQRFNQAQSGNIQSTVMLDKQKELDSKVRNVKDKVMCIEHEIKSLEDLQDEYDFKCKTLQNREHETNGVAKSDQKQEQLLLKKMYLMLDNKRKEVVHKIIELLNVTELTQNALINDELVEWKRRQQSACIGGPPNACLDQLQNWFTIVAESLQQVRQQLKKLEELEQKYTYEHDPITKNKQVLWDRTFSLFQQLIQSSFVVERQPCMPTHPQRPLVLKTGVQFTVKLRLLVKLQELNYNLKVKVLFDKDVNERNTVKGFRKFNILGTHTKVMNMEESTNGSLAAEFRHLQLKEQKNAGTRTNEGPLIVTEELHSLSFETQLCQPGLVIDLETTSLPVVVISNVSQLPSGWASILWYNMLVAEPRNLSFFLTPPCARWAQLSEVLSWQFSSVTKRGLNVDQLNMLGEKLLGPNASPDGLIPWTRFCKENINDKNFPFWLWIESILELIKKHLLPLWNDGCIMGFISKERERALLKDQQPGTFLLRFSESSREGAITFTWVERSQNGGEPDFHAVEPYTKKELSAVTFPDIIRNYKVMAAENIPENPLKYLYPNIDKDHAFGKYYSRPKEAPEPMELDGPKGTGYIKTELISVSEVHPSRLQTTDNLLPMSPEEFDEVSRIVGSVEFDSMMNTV

B1: GST-GFP-fused ORF6 full-length protein (natural protein)
chain: MFHLVDFQVTIAEILLIIMRTFKVSIWNLDYIINLIIKNLSKSLTENKYSQLDEEQPMEID
notes: Held on glutathione Sepharose beads by its GST; also called GST-GFP-ORF6; GST-GFP-ORF6 wild type (WT); not shown: GST, N-terminal, kept; GFP, N-terminal, kept
binding result [1]: binds

B2: GST-GFP fused with the C-terminal peptide of ORF6 wild type (49-61 amino acids) (peptide)
chain: YSQLDEEQPMEID
notes: SARS-CoV-2 ORF6, the 13 amino acids 49-61 of the C-terminal region (M0); also called GST-M0-GFP; M0; not shown: GST, N-terminal, kept; GFP, C-terminal, kept
binding result [2]: binds
